Non-standard residues stand in square brackets, D forms with d. No end group written: not given here. pS = N[C@@H](COP(=O)(O)O)C(=O)O
T1: Clathrin N‐terminal domain (NTD) (human, UniProt Q00610 1-364)
T1 chain: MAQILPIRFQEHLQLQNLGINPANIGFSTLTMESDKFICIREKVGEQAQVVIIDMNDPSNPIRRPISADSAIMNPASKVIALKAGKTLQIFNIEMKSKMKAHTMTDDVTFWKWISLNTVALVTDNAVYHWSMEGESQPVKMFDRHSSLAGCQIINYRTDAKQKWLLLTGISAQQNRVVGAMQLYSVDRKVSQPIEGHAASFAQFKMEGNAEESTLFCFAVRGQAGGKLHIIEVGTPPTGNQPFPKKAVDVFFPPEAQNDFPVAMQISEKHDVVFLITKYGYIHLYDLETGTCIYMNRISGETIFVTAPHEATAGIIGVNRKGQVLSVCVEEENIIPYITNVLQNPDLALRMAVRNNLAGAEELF

T2: TSG101 UEV (human, UniProt Q99816 2-145)
T2 chain: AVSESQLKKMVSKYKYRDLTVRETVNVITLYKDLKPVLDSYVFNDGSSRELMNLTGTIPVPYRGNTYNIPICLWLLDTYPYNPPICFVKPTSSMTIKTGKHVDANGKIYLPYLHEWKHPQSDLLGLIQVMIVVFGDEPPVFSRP


Target: T1, Clathrin N‐terminal domain (NTD)
Assay: FP

In order of falling IC50:
1. GGNLITFSPLQPGEF [HURP_(832–846), wild‐type]  318 µM
2. GGNLITFEPLQPGEF [HURP_(832–846), phosphomimetic (E)]  70 µM
3. YRHISFGGNLITF[pS]PLQPGEF [pS839 HURP_(826–846) peptide]  11 µM
4. GGNLITF[pS]PLQPGEF [pS839 HURP_(832–846)]  11 µM

Target: T2, TSG101 UEV
Assay: FP

In order of falling IC50:
1. NGCSSPTAPLSPMSP [GJA1_(269–283), wild‐type]  465 µM
2. QSIAREPSAPSIPTP [PDCD6IP_(711–725), wild‐type]  34 µM
3. HSGNVTPTAPPYLQES [PIP4P2_(17–32), wild‐type]  29 µM

target: SNX27 PDZ (human, UniProt Q96L92 43-136); assay: FP

In order of falling IC50:
1. NLLLERDTEFTVCPD [CDC25C_(30–44), phosphomimetic (E)]  1.8 mM
2. GMVSSTSFNGG [DAXX_(606–616), wild‐type]  1.3 mM
3. NLLLERDT[pS]FTVCPD [CDC25C_(30–44), phosphorylated (pS)]  1 mM
4. NLLLERDTSFTVCPD [CDC25C_(30–44), wild‐type]  0.21 mM

target: MAP1LC3A (human); assay: FP

In order of rising IC50:
1. KKQLKRF[pS]TEEFVLL [ATG4C_(444–458), phosphorylated (pS)]  5.5 µM
2. KKQLKRFETEEFVLL [ATG4C_(444–458), phosphomimetic (E)]  11 µM
3. KKQLKRFSTEEFVLL [ATG4C_(444–458), wild‐type]  17 µM

Reference: article PMC10333884 (2023)
